According to patent US20230181756A1 (Novartis, published 2023):

Tests used:
human CCR7 [1] = target: T1, human CCR7 (human, UniProt P32248 25-378); test: FACS binding on CCR7 expressing cells, against the unconjugated antibody
T1 construct: The assay field tells which; also called hCCR7; NIH3T3.hCCR7
T1 sequence: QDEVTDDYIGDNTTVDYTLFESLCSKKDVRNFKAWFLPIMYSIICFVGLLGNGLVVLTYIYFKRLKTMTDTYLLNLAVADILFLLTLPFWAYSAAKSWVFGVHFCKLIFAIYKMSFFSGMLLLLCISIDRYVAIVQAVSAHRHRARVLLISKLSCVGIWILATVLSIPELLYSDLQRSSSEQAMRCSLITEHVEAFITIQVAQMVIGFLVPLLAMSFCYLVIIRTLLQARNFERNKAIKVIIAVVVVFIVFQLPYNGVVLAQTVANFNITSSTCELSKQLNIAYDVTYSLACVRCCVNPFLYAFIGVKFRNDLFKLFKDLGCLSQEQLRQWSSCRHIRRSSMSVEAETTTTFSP

human CCR7 [2] = target: T1, human CCR7; test: cell-based or functional assay
human CCR7 [3] = target: T1, human CCR7; test: cell-based or functional assay; remark: listed apart in the source
human CCR7 [4] = target: T1, human CCR7; test: cell-based or functional assay; remark: listed apart in the source
human CCR7 [5] = target: T1, human CCR7; test: cell-based or functional assay; remark: listed apart in the source
human CCR7 [6] = target: T1, human CCR7; test: FACS titration, human CD4+ T cells (receptor density <2,000)

B1: 506E15.CysMab.DAPA.AURIX2 (antibody, human IgG1, kappa, V domains shown)
VH: EVQLVESGGGLVKPGGSLRLSCAASGFTFSSYAMSWIRQAPGKGLEWVATISSGGSFTYYPDSVKGRFTISRDNAKNSLYLQMNSLRAEDTAVYYCARRASTVVGTDFDVWGQGTTVTVSS
VL: DIQMTQSPSSLSASVGDRVTLTCRASQDIGSSLNWLQQKPGKAIKRLIYATSSLDSGVPSRFSGSRSGTDYTLTISSLQPEDFVVYYCLQYASSPPTFGGGTKLEIKR
modifications: AURIX2 on engineered cysteines, DAR 3.80
notes: also called 506E15.DAPA.AURIX2
difference of geometric mean fluorescence intensity from the unconjugated antibody (human CCR7 [1]): ≤ 20%
ADC activity in cell viability assay; IC50 (nM); DEL cells (human CCR7 [2]): 0.0084 nM
ADC activity in cell viability assay; IC50 (nM); KE97 cells (human CCR7 [2]): 0.0131 nM

B2: Parental 121G12 (antibody, V domains shown)
VH: EVQLVESGGGLVKPGGSLKLSCAASGFTFSTYAMSWVRQTPEKRLEWVATISDGGSYSYYPDNVKGRFTISRDNAKNNLYLQMSHLKSEDTAMYYCARRGSRYEEYYVMDYWGQGTSVTVSS
VL: DIVLTQSPATLSVTPGDSVSLSCRASQSISNNLHWYQQKSHESPKLLIKYASQSISGIPSRFSGSGSGTDFTLSINSVETEDFGMYFCQQSNSWLTFGAGTKLGLK
pgADC cytotoxic assay, Anti-mFc.MMAF, AMAX (%) (human CCR7 [3]): 104%
pgADC cytotoxic assay, Anti-mFc.MMAF, IC50 (human CCR7 [3]): 0.055 nM
pgADC cytotoxic assay, Fab-ZAP, AMAX (%) (human CCR7 [3]): 43%
pgADC cytotoxic assay, Fab-ZAP, IC50 (human CCR7 [3]): 0.064 nM

B3: Parental 684E12 (antibody, IgG1, V domains shown)
VH: EVHLVESGGGLVKPGGSLKLSCAASGFTFSNFAMSWVRQTPEKRLEWVATISTGGTYTYYPDSVKGRFTISRDNAKKTLYLQMSSLRSEDTAMYYCTRRGYDGVDKWGQGTTLTVSS
VL: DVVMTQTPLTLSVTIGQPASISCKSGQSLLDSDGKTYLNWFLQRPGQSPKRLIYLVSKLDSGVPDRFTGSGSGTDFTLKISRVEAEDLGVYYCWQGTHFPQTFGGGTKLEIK
pgADC cytotoxic assay, Anti-mFc.MMAF, AMAX (%) (human CCR7 [3]): 80%
pgADC cytotoxic assay, Anti-mFc.MMAF, IC50 (human CCR7 [3]): 0.214 nM
pgADC cytotoxic assay, Fab-ZAP, AMAX (%) (human CCR7 [3]): 33%
pgADC cytotoxic assay, Fab-ZAP, IC50 (human CCR7 [3]): 2.6 nM

B4: 684E12.SMCC.DM1 (antibody, V domains shown)
VH: B3 VH
VL: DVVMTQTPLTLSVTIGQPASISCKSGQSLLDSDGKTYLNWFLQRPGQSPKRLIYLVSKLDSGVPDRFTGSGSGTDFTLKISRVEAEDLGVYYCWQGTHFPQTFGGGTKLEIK
modifications: SMCC-DM1 on lysines of the antibody, DAR 2.6
notes: also called parental 684E12.SMCC.DM1
difference of geometric mean fluorescence intensity from the unconjugated antibody (human CCR7 [1]): ≤ 20%

B5: 674J13.CysMab.DAPA.AURIX2 (antibody, human IgG1, kappa, V domains shown)
VH: DVQLQESGPGLVKPSQTLSLTCTVSGYSITSGYSWHWIRQHPGKGLEWMAHIHSSGSTNYNPSLKSRITISRDTSKNQFSLKLSSVTAADTAVYYCARGGVQAFAYWGQGTLVTVSS
VL: EIVLTQSPATLSASPGERVTMSCSASSSVIYMHWYQQKPGQAPRRWIYDTSKLASGVPARFSGSGSGTDYTLTISSMEPEDAAVYYCQQWSSNPLTFGQGTKLEIKR
modifications: DAR LC 0.03; AURIX2 on engineered cysteines, DAR HC 3.93
notes: also called 674J13.DAPA.AURIX2
ADC activity in cell viability assay; IC50 (nM); CML-T1 cells (CCR7 receptor levels ~29,000) (human CCR7 [4]): 3.78 nM
ADC activity in cell viability assay; IC50 (nM); DEL cells (CCR7 receptor levels ~100,000) (human CCR7 [4]): 0.242 nM
ADC activity in cell viability assay; IC50 (nM); KE97 cells (CCR7 receptor levels ~100,000) (human CCR7 [4]): 0.102 nM
ADC activity in cell viability assay; IC50 (nM); SR786 cells (CCR7 receptor levels ~28,000) (human CCR7 [4]): 2.74 nM
difference of geometric mean fluorescence intensity from the unconjugated antibody (human CCR7 [1]): ≤ 20%
ADC activity in cell viability assay; IC50 (nM); DEL cells (human CCR7 [2]): 0.117 nM
ADC activity in cell viability assay; IC50 (nM); KE97 cells (human CCR7 [2]): 0.0658 nM

B6: Parental 674J13 (antibody, IgG1, V domains shown)
VH: DVQLQESGPDLVKPSQSLSLTCTVTGYSITSGYSWHWIRQFPGNKLEWMAHIHSSGSTNYNPSLKSRISIIRDTSKNLFFLQLNSVTTEDTATYYCARGGVQAFAYWGQGTLVTVSA
VL: QIVLTQSPAIMSASPGEKVTMTCSASSSVIYMHWYQQKSGTSPKRWIYDTSKLASGVPARFSGSGSGTSYSLTISSMEAEDAATYYCQQWSSNPLTFGAGTTLELK
pgADC cytotoxic assay, Anti-mFc.MMAF, AMAX (%) (human CCR7 [3]): 102%
pgADC cytotoxic assay, Anti-mFc.MMAF, IC50 (human CCR7 [3]): 0.137 nM
pgADC cytotoxic assay, Fab-ZAP, AMAX (%) (human CCR7 [3]): 31%
pgADC cytotoxic assay, Fab-ZAP, IC50 (human CCR7 [3]): 6.12 nM

B7: Parental 506E15 (antibody, V domains shown)
VH: EVMLVESGGGLVKPGGSLKLSCAASGFTFSSYAMSWIRQTPEKRLEWVATISSGGSFTYYPDSVKGRFTISRDNVKNTLYLQMSSLRSEDTAMYYCARRASTVVGTDFDVWGAGTTVTVSS
VL: DIQMTQSPSSLSASLGERVSLTCRASQDIGSSLNWLQQEPDGTIKRLIYATSSLDSGVPKRFSGSRSGSDYSLTISSLESEDFVVYYCLQYASSPPTFGGGTKLEIK
pgADC cytotoxic assay, Anti-mFc.MMAF, AMAX (%) (human CCR7 [3]): 95%
pgADC cytotoxic assay, Anti-mFc.MMAF, IC50 (human CCR7 [3]): 0.07 nM
pgADC cytotoxic assay, Fab-ZAP, AMAX (%) (human CCR7 [3]): 60%
pgADC cytotoxic assay, Fab-ZAP, IC50 (human CCR7 [3]): 0.135 nM
ADCC reporter assay, 506E15 IC50 (nM), ALL-SIL cells (CCR7 receptor # 6,200) (human CCR7 [5]): 0.008 nM
ADCC reporter assay, 506E15 IC50 (nM), CMLT-1 cells (CCR7 receptor # 29,000) (human CCR7 [5]): 0.011 nM
ADCC reporter assay, 506E15 IC50 (nM), DEL cells (CCR7 receptor # 62,000) (human CCR7 [5]): 0.074 nM
ADCC reporter assay, 506E15 IC50 (nM), DND-41 cells (CCR7 receptor # 1,700) (human CCR7 [5]): 0.002 nM
ADCC reporter assay, 506E15 IC50 (nM), JVM2 cells (CCR7 receptor # 66,500) (human CCR7 [5]): 0.046 nM
ADCC reporter assay, 506E15 IC50 (nM), Jurkat V158 cells (CCR7 receptor # 3,400) (human CCR7 [5]): 0.004 nM
ADCC reporter assay, 506E15 IC50 (nM), MOTN-1 cells (CCR7 receptor # 64,600) (human CCR7 [5]): 0.077 nM
ADCC reporter assay, 506E15 IC50 (nM), PEER cells (CCR7 receptor # 8,700) (human CCR7 [5]): 0.038 nM
ADCC reporter assay, 506E15 IC50 (nM), SR786 cells (CCR7 receptor # 27,800) (human CCR7 [5]): 0.011 nM

B8: Humanized 684E12 hIgG1 DAPA CysMab (antibody, V domains shown)
VH: EVQLVESGGGLVKPGGSLRLSCAASGFTFSNFAMSWVRQAPGKGLEWVSTISTGGTYTYYPDSVKGRFTISRDNAKNSLYLQMNSLRAEDTAVYYCARRGYSGVDKWGQGTTVTVSS
VL: DVVMTQSPLSLPVTLGQPASISCKSGQSLLDSTGKTYLNWFLQRPGQSPRRLIYLVSKLDSGVPDRFSGSGSGTDFTLKISRVEAEDVGVYYCWQGTHFPQTFGGGTKLEIKR
notes: also called Humanized CysMab.DAPA antibody 684E12
EC50 (human CCR7 [6]): ~7 nM
